Source: US20260102485A1 (CEDARS SINAI MEDICAL CENTER, published 2026)
Changes are numbered by the printed parent chain.

T1: human TL1A (hTL1A) antigen (human, UniProt O95150 58-251, limits assumed)
T1 construct: also called TNFSF15
T1 sequence (looked up): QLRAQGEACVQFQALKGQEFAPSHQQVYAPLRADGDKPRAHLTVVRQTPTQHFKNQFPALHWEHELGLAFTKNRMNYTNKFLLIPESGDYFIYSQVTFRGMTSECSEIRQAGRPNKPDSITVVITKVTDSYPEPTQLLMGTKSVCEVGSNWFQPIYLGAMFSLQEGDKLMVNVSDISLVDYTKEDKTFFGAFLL

T2: murine TL1A (murine, UniProt Q5UBV8 94-252, limits assumed)
T2 sequence (looked up): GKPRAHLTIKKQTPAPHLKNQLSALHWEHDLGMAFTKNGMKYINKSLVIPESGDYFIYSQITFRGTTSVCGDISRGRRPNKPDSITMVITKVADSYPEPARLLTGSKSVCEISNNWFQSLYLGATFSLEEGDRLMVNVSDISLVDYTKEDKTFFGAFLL

B1: AS12824 (antibody, V domains shown)
VH: QVQLVQSGAEVKKPGASVKVSCKASGFDICDTYMHWVKQRPGQGLEWIGRIDPASGHTKYDPKFQVRATITTDTSTSTAYLELSSLRSEDTAVYYCARSGGLPDVWGQGTTVTVSS
VL: EIVLTQSPGTLSASPGERATMSCRASSSVSYMYWYQQKPGQAPRPWIYATSNLASGVPDRFSGSGSGTDYTLTISRVEPEDFAVYYCQQWSGNPRTFGGGTKLEIK
notes: Humanized 5C3D11 clone from a phage display library; also called 15
B2: AS12816 (antibody, V domains shown)
VH: B1 VH with T72R, A97S
VL: B1 VL with A19V, M21L, Y70F, V77L
notes: Humanized 5C3D11 clone from a phage display library
B3: AS12823 (antibody, V domains shown)
VH: B1 VH with V20L, K38R, I70M, A79V
VL: B1 VL with A13L, V57I, Y70F
notes: Humanized 5C3D11 clone from a phage display library; also called 14
B4: AS12819 (antibody, V domains shown)
VH: B1 VH with K12V, V20L, K38R, I48M, A68V, I70M, A79V
VL: B1 VL with A13L, A19V, Y70F, L103V
notes: Humanized 5C3D11 clone from a phage display library; also called 10
B5: 5C3D11 (antibody, V domains shown)
VH: EVQLQQSGAELVKPGASVKLSCTASGFDIQDTYMHWVKQRPEQGLEWIGRIDPASGHTKYDPKFQVKATITTDTSSNTAYLQLSSLTSEDTAVYYCSRSGGLPDVWGAGTTVTVSS
VL: QIVLSQSPAILSASPGEKVTMTCRASSSVSYMYWYQQKPGSSPKPWIYATSNLASGVPDRFSGSGSGTSYSLTISRVEAEDAATYYCQQWSGNPRTFGGGTKLEIK
notes: Mouse hybridoma monoclonal antibody; also called 684842-3; anti-TL1A antibody 5C3D11
B6: 9E12E5 (antibody, V domains shown)
VH: QVHLQQSGPELVKPGASVKLSCKASGYTFTKYDINWVRQRPEQGLEWIGWIFPGDGRTDYNEKFKGKATLTTDKSSSTAYMEVSRLTSEDSAVYFCARYGPAMDYWGQGTSVTVAS
VL: DVLMTQTPLSLPVSLGDQASISCRSSQTIVHSNGDTYLDWFLQKPGQSPKLLIYKVSNRFSGVPDRFSGSGSGTDFTLKISRVEAEDLGVYYCFQGSHVPYTFGGGTKLEIK
notes: Mouse hybridoma monoclonal antibody; also called 684842-6; anti-TL1A antibody 9E12E5
B7: AS12825 (antibody, V domains shown)
VH: B1 VH with R40A, I48M, I70M, A97S
VL: B1 VL with A19V, P45L, W46L, Y70F
notes: Humanized 5C3D11 clone from a phage display library; also called 16

target: T1, human TL1A (hTL1A) antigen; experiment: SPR, multi-cycle, antibody as ligand, TL1A analyte

B1 and B2 are within 1.5-fold of each other in kon: 1.07e+06 M⁻¹ s⁻¹ for the first, 819000 M⁻¹ s⁻¹ for the second.

B3 and B4 are within 1.5-fold of each other in kon: 1.11e+06 M⁻¹ s⁻¹ for the first, 946000 M⁻¹ s⁻¹ for the second.

target: T1, human TL1A (hTL1A) antigen; experiment: Biacore (SPR), TL1A as analyte

Going from B5 to B6, the Kd rises from 79 pM to 520 pM (6.6-fold).

target: T2, murine TL1A; experiment: MSD electrochemiluminescence plate assay, antibody titrated on plates coated with murine TL1A
Protocol: Anti-human TL1A monoclonal antibodies 9E12E5 and 5C3D11 neutralize the activity of human TL1A in vitro. […] MSD plates were coated with murine TL1A and incubated with various concentrations of 5C3D11 or 9E12E5 to evaluate the ability of the antibody to recognize murine TL1A, as shown in FIG. 6. Human TL1A was included as a positive control. 5C3D11 recognizes murine TL1A in a concentration dependent manner. The binding profile of both the 5C3D11 and 9E12E5 antibodies were assessed using a TL1A transfected HEK293 cell line and compared to the untransfected parental HEK293 cell line. Fluorescent staining of the anti-TL1A antibodies in TL1A expressing HEK293 cells is compared to the untransfected parental HEK293 cells, as shown in FIG. 7.

B6: no binding (tested: 100 ng/ml).

target: T1, human TL1A (hTL1A) antigen; experiment: SPR, affinity ranking, clone as ligand

Going from B1 to B2, the Kd rises from 16.3 pM to 62 pM (3.8-fold).

Compared with B7, B3 is 2.5-fold lower in Kd: 105 pM for the first, 42.4 pM for the second.

B4 showed a Kd of 46.2 pM.

First: B1
Second: B2
The koff of the first is 2.8-fold lower: 1.69e-05 s⁻¹ for the first, 4.73e-05 s⁻¹ for the second.

B7 and B3 are within 1.5-fold of each other in koff: 5.45e-05 s⁻¹ for the first, 3.66e-05 s⁻¹ for the second.

Work on B4 yielded a koff of 3.81e-05 s⁻¹.

B1 and B2 are within 1.5-fold of each other in kon: 1.03e+06 M⁻¹ s⁻¹ for the first, 763000 M⁻¹ s⁻¹ for the second.

First: B7
Second: B3
The kon of the first is 1.7-fold lower: 518000 M⁻¹ s⁻¹ for the first, 864000 M⁻¹ s⁻¹ for the second.

In the case of B4, the kon is reported as 825000 M⁻¹ s⁻¹.

target: T1, human TL1A (hTL1A) antigen; experiment: cell-based or functional assay

In the case of B5, the “EC50, inhibition of human TL1A induced IFN-γ production (percent of IFN-γ production without inhibitor)” value is reported as 1000 pM.

target: T1, human TL1A (hTL1A) antigen; experiment: cell-based or functional assay; remark: another data set of the same source

For B6, the “EC50, inhibition of human TL1A induced IFN-γ production (percent of IFN-γ production without inhibitor)” value was 2400 pM.
